Source: US20210171950, “METHOD OF PRODUCING AN APTAMER AND USES THEREOF” (City University of Hong Kong, published 2021)

Target: T1, RHAU53 peptide (DHX36/RHAU residues 53-106 as printed) (UniProt Q9H2U1 SEQ:1-53)
T1 sequence: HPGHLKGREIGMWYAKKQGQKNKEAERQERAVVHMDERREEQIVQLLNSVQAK
Assay: EMSA; 80 nM RHAU53, 2 nM FAM-D-TERRA; 25 mM Tris-HCl pH 7.5, 150 mM KCl, 1 mM MgCl2, 37 C; gel with 40 mM KOAc; complex formation inhibited by L-RNA Ap3-7 (SEQ 19, binds the TERRA RNA) with IC50 937.1±1.7 nM
Conditions: tags: peptide obtained from OriGene; label: 5'FAM; G4 (3 G-quartets, UUA loops)
Description: L-RNA Ap3-7 and S′FAM labelled D-RNA TERRA were heated at 75° C. for 3 minutes and cooled down separately. Then, reaction mixtures containing 2 nM 5′FAM labelled D-TERRA, 25 mM Tris-HCl (pH 7.5), 150 mM KCl and 1 mM MgCl₂ were prepared. Corresponding amount of L-Ap3-7 and 80 nM RHAU53 were premixed, then added to the specific samples and incubated at 37° C. for 30 minutes. The final samples were loaded onto a native PAGE (6%, 49:1), containing 40 mM KOAc, 1 mM MgCl₂ and 0.5×TBE (pH 8.3), and run at 30 mA for 75 minutes.
To study if L-Ap3-7 can compete with rG4-binding protein and inhibit the D-TERRA rG4-protein complex formation, the inventors have tested it with RHAU53 peptide. Particularly, L-RNA Ap3-7 and S′FAM labelled D-RNA TERRA were heated at 75° C. for 3 minutes and cooled down separately. Then, reaction mixtures containing 2 nM 5′FAM labelled D-TERRA, 25 mM Tris-HCl (pH 7.5), 150 mM KCl and 1 mM MgCl₂ were prepared. Corresponding amount of L-Ap3-7 and 80 nM RHAU53 were premixed, then added to the specific samples and incubated at 37° C. for 30 minutes. The final samples were loaded onto a native PAGE (6%, 49:1), containing 40 mM KOAc, 1mM MgCl₂ and 0.5 X TBE (pH 8.3), and run at 30 mA for 75 minutes. […]

UUAGGGUUAGGGUUAGGGUUAGGG (ssRNA) [D-TERRA rG4]
binding result: binds
